The target of assay [1] is HSV-1 gB-Sm (herpes simplex virus 1 (strain KOS)) (UniProt P06437). The assay is described as follows: split reporter.
Assay [2] deals with HSV-1 gD-Sm (herpes simplex virus 1 (strain KOS)) (UniProt Q69091). The assay is described as follows: split reporter.
UniProt Q69091, sequence (Q69091 26-394): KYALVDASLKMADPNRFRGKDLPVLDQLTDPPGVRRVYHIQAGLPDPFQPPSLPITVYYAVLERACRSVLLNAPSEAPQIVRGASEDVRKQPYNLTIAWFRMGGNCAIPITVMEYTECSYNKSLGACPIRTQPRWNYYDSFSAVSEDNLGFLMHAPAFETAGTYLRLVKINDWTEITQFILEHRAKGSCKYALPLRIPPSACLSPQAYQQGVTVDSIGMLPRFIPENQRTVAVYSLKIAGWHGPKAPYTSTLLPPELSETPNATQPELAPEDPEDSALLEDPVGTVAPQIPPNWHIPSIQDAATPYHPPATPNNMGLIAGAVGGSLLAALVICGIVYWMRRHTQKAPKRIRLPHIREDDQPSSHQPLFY

Consider “HSV-1 gH-Lg expressed without gL (from UniProt P06477 19-838) (natural protein)”, for which the values for the fold reduction of the NanoBiT interaction in the absence of gL against gH/gL in assay [1] and in assay [2] were 2 fold and 6 fold, respectively.

Source of the values: publication doi:10.1101/2022.05.07.491029.
